Results: doi:10.1101/2020.09.01.277368 (bioRxiv, 2020)
Values joined by “and” are separate entries in the source; they are usually repeats but may differ in a detail not shown here. Equal values may be shown once.

Target: the molecule itself
Assay: AUC; sedimentation velocity (SV-AUC); MetA at 10, 20 and 30 µM in 20 mM Tris-Cl pH 7.5, 150 mM NaCl; 40,000 rpm; absorbance at 280 nm; SEDFIT continuous c(s) distribution; monomer, dimer and tetramer peaks, populations unchanged at the three concentrations

B1: homoserine acetyl transferase MetA (Rv3341) of Mycobacterium tuberculosis, recombinant histidine-tagged (enzyme)
chain: MTISDVPTQTLPAEGEIGLIDVGSLQLESGAVIDDVCIAVQRWGKLSPARDNVVVVLHALTGDSHITGPAGPGHPTPGWWDGVAGPGAPIDTTRWCAVATNVLGGCRGSTGPSSLARDGKPWGSRFPLISIRDQVQADVAALAALGITEVAAVVGGSMGGARALEWVVGYPDRVRAGLLLAVGARATADQIGTQTTQIAAIKADPDWQSGDYHETGRAPDAGLRLARRFAHLTYRGEIELDTRFANHNQGNEDPTAGGRYAVQSYLEHQGDKLLSRFDAGSYVILTEALNSHDVGRGRGGVSAALRACPVPVVVGGITSDRLYPLRLQQELADLLPGCAGLRVVESVYGHDGFLVETEAVGELIRQTLGLADREGACRR
notes: also called HSAT; (His)6-Rv3341
stoichiometry N: 2 and 4
